{
  "source": "patent US7910550B2",
  "about": "“Human kunitz-type inhibitor with enhanced antifibrinolytic activity” (STC.UNM, priority 2004, dated 2011)",
  "molecules": {"B1": {"name": "KD1: the first Kunitz-type domain of human TFPI-2 (SEQ ID NO:2), recombinant, expressed in E. coli (protein, listed as Homo sapiens)", "chain": "DAAQEPTGNNAEICLLPLDYGPCRALLLRYYYDRYTQSCRQFLYGGCEGNANNFYTWEACDDACWRIEKVPKV"}, "B2": {"name": "R24Q KD1: KD1 point mutant, arginine 24 to glutamine; lacks reactive site arginine/lysine residue (protein)", "chain": "B1 chain with R24Q", "modifications": "left off: small tags and cut ends"}, "B3": {"name": "R24Q TFPI-2: full-length TFPI-2 mutant, P1 arginine R24 to glutamine; inactive mutant (protein)", "chain": "DAAQEPTGNNAEICLLPLDYGPCQALLLRYYYDRYTQSCRQFLYGGCEGNANNFYTWEACDDACWRIEKVPKVCRLQVSVDDQCEGSTEKYFFNLSSMTCEKFFSGGCHRNRIENRFPDEATCMGFCAPKKIPSFCYSPKDEGLCSANVTRYYFNPRYRTCDAFTYTGCGGNDNNFVSREDCKRACAKALKKKKKMPKLRFASRIRKIRKKQF"}},
  "key": {"[1]": {"test_system": "human umbilical vein endothelial cells (HUVECs)", "test": "In vitro human endothelial cell angiogenesis assay (capillary tube formation on ECMATRIX)", "assay_type": "cell-based", "excerpt": "The angiogenesis assay is commercially available from Chemicon International, Inc. (Temecula, Calif.), and involves growing human umbilical vein endothelial cells (HUVECs) on a proprietary matrix, followed by assessing angiogenesis on this matrix by counting new branch points in sprouting endothelial cells.\nA semi-quantitative assay for in vitro angiogenesis was utilized. Human umbilical vein endothelial cells (HUVEC, Clonetics Corp., Walkersville, Md.) were maintained in 25 cm^2 flasks in EGM-2 media (Clonetics Corp.) supplemented with 2% fetal bovine serum, gentamicin, amphotericin-B, hEGF, hydrocortisone, VEGF, hFGF-B, R^3-IGF-1, ascorbic acid and heparin. For assay, a 48-well tissue culture plate was coated with 100 μl of ECMATRIX (Chemicon International, Inc., Temecula, Calif.) followed by incubation at 37° C. for one hour. Approximately 5×10^4 cells were then seeded onto the surface of the polymerized matrix. Varying concentrations of full-length human TFPI-2, diluted in EGM-2 media and filtered, were added to the wells and plate was placed in 37° C.-humidified CO2 incubator. Each treatment was performed in duplicate wells. Separately, VEGF was used as a positive control. The three-dimensional organization of cells was examined every hour under an inverted photomicroscope. The capillary tube branch point formation was counted in each well following eight hours of incubation. For each concentration, eight randomly chosen areas under 250× magnified field were observed. The results are expressed as number of branching points (mean±SEM) and the differences between each mean value was tested by one way analysis of variance (ANOVA). Statistically p-value <0.05 was accepted.\nTo examine the effect of full-length human TFPI-2 on morphogenesis (capillary-like tube formation) of endothelial cells, HUVECs were seeded on the matrigel and treated with full-length human TFPI-2 (0.2 μM-5 μM)."}, "[2]": {"test_system": "murine model of allergic asthma", "test": "Murine model of allergic asthma (OVA-immunized B6D2F1 mice)", "assay_type": "in vivo", "details": "lateral tail vein, days 11-14; vs vehicle treated mice", "method": "B6D2F1 mice were immunized with ovalbumin (OVA) adsorbed to alum (days 0 and 5) and received two OVA aerosols on day 12. A subgroup of mice were treated with hexahistidine-tagged KD1, delivered via the lateral tail vein, on days 11-14. Mice were sacrificed on day 15 for the enumeration and differentiation of cells in the airway and lung tissue compartments."}, "HT-1080 cells [3]": {"test_system": "HT-1080 cells", "test": "Apoptosis detection by AO/EB staining", "assay_type": "cell-based, human", "details": "1 μM, 48 h; approximately 5% in vehicle-treated cells", "method": "(§1) All cell lines were maintained in Dulbecco's minimal essential medium (DMEM), supplemented with heat-inactivated 10% fetal bovine serum and penicillin-streptomycin. The cells were cultured either in 6- or 12-well plates at 37° C. in a humidified atmosphere containing 6% CO2. At confluence, the cells were treated with fresh medium containing either wild-type TFPI-2, R24K KD1, or R24Q KD1. Cells were treated in duplicate with purified proteins at concentrations ranging from 0.5 μM to 10 μM for different time intervals. One set were also treated with PBS to serve as a control. The Limulus Amebocyte Lysate (LAL) assay was performed on each protein preparation to determine the presence of any endotoxin/LPS, and only trace amounts of endotoxin (<0.5 ng/L) were detected in each protein preparation.\nCells were grown to confluence in two-chamber culture slides containing 2 ml medium. For AO/EB staining, the cultures were treated with recombinant proteins as described above. […] Cells were viewed within 30 minutes of staining and counted using a Zeiss axiocam epifluorescence microscope (Carl Zeiss, Inc., Thornwood, N.Y.) equipped with a triple cube filter [DAPI/FITC/RITC]. […] Experiments were performed in triplicate, and a minimum of 100 total live and apoptotic cells were counted in each treatment."}, "HT-1080 cells [4]": {"test_system": "HT-1080 cells", "test": "Western blot of cell extracts (Bax, Bcl-2, cleaved caspase-9, cleaved caspase-3)", "assay_type": "cell-based, human", "details": "1 μM, 48 hours; vs vehicle-treated cells", "method": "Cell extracts were analyzed for the pro-apoptotic Bax, the anti-apoptotic Bcl-2, cleaved caspase-9 and cleaved caspase-3 by immunoblotting techniques. Approximately, 1×10^6 HT-1080 cells were grown to confluence in 6-well plates and treated with recombinant proteins and vehicle as described above. Both floating and adherent cells were harvested and washed twice with cold PBS. The cells were lysed by sonication in 500 μl of lysis buffer containing of 125 mM Tris-HCl (pH 6.8), 2% SDS, 10% glycerol, 50 mM sodium phosphate, 1 mM PMSF and protease inhibitor cocktail. The lysate was kept on ice for about 10 minutes, centrifuged for 15 minutes at 10,000×g at 4° C., and the supernatant recovered. The supernatants were boiled for 3 min and 50 μg of lysate protein subjected to SDS-PAGE in 4-20% polyacrylamide gradient gels. […] The nitrocellulose membranes were then probed with specific antibodies dissolved in fresh blocking buffer, and immunoreactive proteins were identified using HRP-conjugated secondary antibodies and a chemiluminescent reagent system essentially as described in Kempiah et al., Mol. Cancer, 6:20, 2007. Separate blots were treated with mouse monoclonal anti-α-tubulin antibody in order to verify equal loading of lysate proteins onto the gel."}, "HT-1080 cells [5]": {"test_system": "HT-1080 cells", "test": "FACS analysis of apoptosis with annexin V/propidium iodide", "assay_type": "cell-based, human", "details": "1 μM, 48 hours", "method": "as §1\nTo assess the degree of apoptosis between the various treatments, cells were grown to confluence in 6 well plates and treated with either proteins or vehicle as described earlier. For annexin V staining, approximately 1.2×10^6 cells were harvested with PBS containing 1 mM EDTA and washed twice gently with cold PBS. The cells were suspended in 100 μl of cold binding buffer (10 mM Hepes (pH 7.4), 140 mM NaCl, 2.5 mM CaCl2), and subsequently incubated at room temperature in the dark for 25 minutes with 5 μl of FITC-conjugated annexin V and 10 μl of propidium iodide (50 μg/ml stock). The cells were then washed in 500 μl of binding buffer to remove unbound reagents, centrifuged at 900×g for 5 minutes, and resuspended in 1 ml of cold binding buffer. The labeled cells were then analyzed using a FACSCALIBUR flow cytometer (Becton Dickinson, San Jose, Calif.) and the data analyzed using […] software."}, "plasmin": {"biological_target": "plasmin (Homo sapiens, UniProt P00747)", "sequence (P00747 581-810 limits assumed, species assumed)": "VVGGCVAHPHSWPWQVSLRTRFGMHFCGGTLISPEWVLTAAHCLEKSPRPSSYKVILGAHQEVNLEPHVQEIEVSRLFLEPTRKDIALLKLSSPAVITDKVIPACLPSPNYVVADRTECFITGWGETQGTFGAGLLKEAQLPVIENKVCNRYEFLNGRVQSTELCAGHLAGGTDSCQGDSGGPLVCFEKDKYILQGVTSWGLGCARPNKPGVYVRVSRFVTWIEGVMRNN", "sequence (P00747 97-580 partner limits assumed, species assumed)": "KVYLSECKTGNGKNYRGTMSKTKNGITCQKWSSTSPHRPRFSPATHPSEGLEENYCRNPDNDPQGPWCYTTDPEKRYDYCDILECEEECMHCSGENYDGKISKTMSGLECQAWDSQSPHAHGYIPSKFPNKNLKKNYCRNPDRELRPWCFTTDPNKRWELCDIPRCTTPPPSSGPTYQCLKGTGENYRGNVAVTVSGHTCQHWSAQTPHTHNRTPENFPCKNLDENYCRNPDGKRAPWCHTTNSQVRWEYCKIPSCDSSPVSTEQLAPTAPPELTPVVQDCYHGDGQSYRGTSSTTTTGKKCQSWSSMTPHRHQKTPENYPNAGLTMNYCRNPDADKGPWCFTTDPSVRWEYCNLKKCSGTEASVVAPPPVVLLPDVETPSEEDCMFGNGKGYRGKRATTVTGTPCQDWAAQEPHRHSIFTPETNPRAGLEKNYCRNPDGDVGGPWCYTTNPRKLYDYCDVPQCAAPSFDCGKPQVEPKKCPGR", "details": "relative to TFPI-2; cited from earlier work"}, "[6]": {"biological_target": "factor VIIa-tissue factor complex (Homo sapiens, UniProt P08709)", "sequence (P08709 213-466 limits assumed)": "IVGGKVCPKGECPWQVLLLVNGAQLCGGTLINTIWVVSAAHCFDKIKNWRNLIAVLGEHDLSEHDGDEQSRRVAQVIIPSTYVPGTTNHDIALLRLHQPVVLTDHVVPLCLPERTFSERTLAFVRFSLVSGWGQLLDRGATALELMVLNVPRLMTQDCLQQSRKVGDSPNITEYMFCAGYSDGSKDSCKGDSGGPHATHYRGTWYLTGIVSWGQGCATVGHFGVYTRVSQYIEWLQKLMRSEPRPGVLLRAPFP", "sequence (P08709 61-212 partner limits assumed)": "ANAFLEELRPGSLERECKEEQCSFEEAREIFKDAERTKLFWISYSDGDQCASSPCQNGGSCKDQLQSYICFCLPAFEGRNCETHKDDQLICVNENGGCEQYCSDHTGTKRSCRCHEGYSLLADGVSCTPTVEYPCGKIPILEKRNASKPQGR", "sequence (P13726 33-295 partner)": "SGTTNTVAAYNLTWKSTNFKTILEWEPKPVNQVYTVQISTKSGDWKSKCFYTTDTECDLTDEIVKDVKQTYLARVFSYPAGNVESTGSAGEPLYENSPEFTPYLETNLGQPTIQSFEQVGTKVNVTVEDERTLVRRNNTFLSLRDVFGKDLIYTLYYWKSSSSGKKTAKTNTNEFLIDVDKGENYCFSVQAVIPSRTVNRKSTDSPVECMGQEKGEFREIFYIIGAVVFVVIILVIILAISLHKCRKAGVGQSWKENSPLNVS", "details": "relative to TFPI-2; cited from earlier work"}, "trypsin": {"test_system": "trypsin", "details": "relative to TFPI-2; cited from earlier work"}},
  "note": "Positions count from the first letter of the chain named. Names and notes keep the numbering of the source.",
  "data": [
    {"molecule": "VEGF [reference compound]", "values": [
      {"measurement": "time to first visible tube", "setting": "[1]; approximately 4 hours in the control", "result": "≤ 3", "unit": "h"},
      {"measurement": "number of tube formation", "setting": "[1]; positive control, compared to control HUVECs", "result": "significant increase in number of tube formation"}
    ]},
    {"molecule": "B1", "values": [
      {"measurement": "cells, macrophages and lymphocytes recoverable from the airways", "setting": "[2]", "result": "significant decrease in the number of airway macrophages and lymphocytes"},
      {"measurement": "inhibition of angiogenesis (capillary-like tube formation)", "setting": "[1]; HUVECs on matrix", "result": "does not inhibit angiogenesis"}
    ]},
    {"molecule": "B2", "values": [
      {"measurement": "apoptotic cells (AO/EB staining)", "setting": "HT-1080 cells [3]", "result": 18, "unit": "%"},
      {"measurement": "activated caspase 9 and activated caspase 3 (immunoblot)", "setting": "HT-1080 cells [4]", "result": "levels were significantly lower than that observed with TFPI-2 or R24K KD1"},
      {"measurement": "cells in a late apoptotic stage (annexin V and PI positive)", "setting": "HT-1080 cells [5]; vehicle 4%", "result": "~15", "unit": "%"},
      {"measurement": "early apoptotic cells (annexin V-FITC positive)", "setting": "HT-1080 cells [5]; vehicle 16%", "result": 55, "unit": "%"}
    ]},
    {"molecule": "B3", "values": [
      {"measurement": "inhibitory activity toward plasmin", "setting": "plasmin", "result": "5-10%"},
      {"measurement": "lost inhibitory activity towards plasmin", "setting": "plasmin", "result": "> 90", "unit": "%"},
      {"measurement": "inhibitory activity toward factor VIIa-tissue factor complex", "setting": "[6]", "result": "5-10%"},
      {"measurement": "lost inhibitory activity towards factor VIIa-tissue factor complex", "setting": "[6]", "result": "> 90", "unit": "%"},
      {"measurement": "inhibitory activity toward trypsin", "setting": "trypsin", "result": "5-10%"},
      {"measurement": "lost inhibitory activity towards trypsin", "setting": "trypsin", "result": "> 90", "unit": "%"}
    ]}
  ]
}
